Laboratory results taken from patent publication US20110251266, “APTAMER FOR NGF AND USE THEREOF” (Shionogi & Co., Ltd., published 2011).
Changes are numbered by the printed parent chain.

B1: SEQ52 aptamer (ssRNA)
RNA: GGGAGAACUUCGACCAGAAGUUUGAAAGAAACCCAAAUAUACAAAACACUAUGUGCGCAUACAUGGAUCCUCA
modifications: 2'-F all pyrimidines
B2: SEQ38 aptamer (ssRNA)
RNA: GGGAGAACUUCGACCAGAAGAGAAUGAAACUCCACAAAGUACAUAAAACAUAUGUGCGCAUACAUGGAUCCUCA
modifications: 2'-F all pyrimidines
B3: SEQ78 aptamer (ssRNA)
RNA: GGGAGAACUUCGACCAGAAGUGUGUAUUGUUCAGGGUGUGCCCAGCCUAUAACCAUAUGUGCGCAUACAUGGAUCCUC
modifications: 2'-F all pyrimidines
B4: SEQ72 mosaic aptamer (mixed)
DNA: GGGAGAGGCAAGAATAGGGCTGGATGGGCAGTAACCTGAAAAAAACCACCCACCTCTACCGTGAAGAGAAGAGACATTAGGA
modifications: purines ribo, pyrimidines (C,T) deoxy
B5: SEQ41 aptamer (ssRNA)
RNA: GGGAGAACUUCGACCAGAAGUUUGAAAGGAACCCAAAGCGAAACAAAACGUAUGUGCGCAUACAUGGAUCCUCA
modifications: 2'-F all pyrimidines
B6: SEQ37 aptamer (ssRNA)
RNA: B5 RNA with G29A, C39G, G40U, A41G, C44A, A45C, A48C, C49A, G50A
modifications: 2'-F all pyrimidines
B7: SEQ62 aptamer (ssRNA)
RNA: B5 RNA with G29A, G38U, C39U, G40A, A43G, C44U, A45G, A48C, C49A
modifications: 2'-F all pyrimidines
B8: SEQ76 aptamer (ssRNA)
RNA: GGGAGAACUUCGACCAGAAGGAUAAACGCAUGUAUUUGCAGUAUUAAAAAUGCCUUAUGUGCGCAUACAUGGAUCCUC
modifications: 2'-F all pyrimidines
B9: SEQ75 aptamer (ssRNA)
RNA: GGGAGAACUUCGACCAGAAGUGAAAGAAUCUCCAAAGACAAGAUAAAAACAACCGUAUGUGCGCAUACAUGGAUCCUC
modifications: 2'-F all pyrimidines
B10: SEQ73 mosaic aptamer (mixed)
DNA: GGGAGAGGCAAGAATAGGGCACTTGAAAAAAACCCAAAGAAAGAATACTTACCCGGCGCGTGAAGAGAAGAGACATTAGGA
modifications: purines ribo, pyrimidines (C,T) deoxy
B11: SEQ77 aptamer (ssRNA)
RNA: GGGAGAACUUCGACCAGAAGUGAAAAAAUCUCCAGUUGCAAGACGAAACAAACCUUAUGUGCGCAUACAUGGAUCCUC
modifications: 2'-F all pyrimidines
B12: SEQ57 aptamer (ssRNA)
RNA: GGGAGAACUUCGACCAGAAGUUUGAAAAAAACCCAAACACCGAAGCACAAAUAUGUGCGCAUACAUGGAUCCUCA
modifications: 2'-F all pyrimidines
B13: SEQ70 mosaic aptamer (mixed)
DNA: GGGAGAGGCAAGAATAGGGCTGGAAATAGAACCGCGCTGTCTTCATTAAGCCGCCCAACGGTGAAGAGAAGAGACATTAGGA
modifications: purines ribo, pyrimidines (C,T) deoxy
B14: SEQ39 aptamer (ssRNA)
RNA: B5 RNA with U22G, G28A, G38U, C39A, G40A, A43C, C44A, A46C, C49U
modifications: 2'-F all pyrimidines
B15: SEQ58 aptamer (ssRNA)
RNA: B5 RNA with G28A, G38U, C39A, G40C, A42G, C44A, A45U, C49U
modifications: 2'-F all pyrimidines
B16: SEQ86 aptamer (ssRNA)
RNA: GGGAGAACUUCGACCAGAAGGAGUAGCCAGUGAACCUGGAAUAUGAAAAAAACCUUAUGUGCGCAUACAUGGAUCCUC
modifications: 2'-F all pyrimidines
B17: SEQ85 aptamer (ssRNA)
RNA: GGGAGAACUUCGACCAGAAGCGGAAGCCUGCGUAACCGCAGGAUGAAAACAACCGUAUGUGCGCAUACAUGGAUCCUC
modifications: 2'-F all pyrimidines
B18: SEQ51 aptamer (ssRNA)
RNA: GGGAGAACUUCGACCAGAAGUUUGAAAGAAACCCAAAAAAACAACAUAUGAACUAUGUGCGCAUACAUGGAUCCUCA
modifications: 2'-F all pyrimidines
B19: SEQ71 mosaic aptamer (mixed)
DNA: GGGAGAGGCAAGAATAGGGCACTTGAAAAAAACCCAAATTTACCGTCTTCAGCGTCGGGTGTGAAGAGAAGAGACATTAGGA
modifications: purines ribo, pyrimidines (C,T) deoxy
B20: SEQ69 mosaic aptamer (mixed)
DNA: GGGAGAGGCAAGAATAGGGCCCAGCTGAAAAAAACCTGGACGTACACCGTTCGCCGAGCGGGTGAAGAGAAGAGACATTAGGA
modifications: purines ribo, pyrimidines (C,T) deoxy
B21: SEQ80 aptamer (ssRNA)
RNA: GGGAGAACUUCGACCAGAAGUGAAAACAACCUCCCAAUAAUGAUCACAGAAAUCCUAUGUGCGCAUACAUGGAUCCUC
modifications: 2'-F all pyrimidines
B22: SEQ64 aptamer (ssRNA)
RNA: B5 RNA with G29A, G38A, G40A, A41U, A42U, C44G, A45C, A47C, G50A
modifications: 2'-F all pyrimidines
B23: SEQ40 aptamer (ssRNA)
RNA: GGGAGAACUUCGACCAGAAGUUUGAAAAAAACCCAGGAAAAUGGAAGACGUAUGUGCGCAUACAUGGAUCCUCA
modifications: 2'-F all pyrimidines
B24: SEQ42 aptamer (ssRNA)
RNA: B23 RNA with G36A, G37A, A39G, A41G, U42C, G43A, A45C, C49G, G50A
modifications: 2'-F all pyrimidines
B25: SEQ49 aptamer (ssRNA)
RNA: GGGAGAACUUCGACCAGAAGUGAAAGAAACUCCCAAGACGGUAACGAAAGUAUGUGCGCAUACAUGGAUCCUCA
modifications: 2'-F all pyrimidines
B26: SEQ54 aptamer (ssRNA)
RNA: GGGAGAACUUCGACCAGAAGUCGAAAGUGAAAGAAACUCCAACGAAAGCAUAUGUGCGCAUACAUGGAUCCUCA
modifications: 2'-F all pyrimidines
B27: SEQ79 aptamer (ssRNA)
RNA: GGGAGAACUUCGACCAGAAGGAUAGCCAUGUGGAGGUGAAGACUGAAAUAAACCAUAUGUGCGCAUACAUGGAUCCUC
modifications: 2'-F all pyrimidines
B28: SEQ83 aptamer (ssRNA)
RNA: GGGAGAACUUCGACCAGAAGUUGAAGCUUGAAAAAAACCCAGGAUUAAACAGACAGUAUGUGCGCAUACAUGGAUCCUC
modifications: 2'-F all pyrimidines
B29: SEQ67 aptamer (ssRNA)
RNA: GGGAGAACUUCGACCAGAAGUCGAUAACGAACAAAACUCCCAAAGGAAUAUAUGUGCGCAUACAUGGAUCCUCA
modifications: 2'-F all pyrimidines
B30: SEQ68 aptamer (ssRNA)
RNA: B26 RNA with A25G, U28C, A41C, C43A, G44A, A46C, G48C, C49A, A50G
modifications: 2'-F all pyrimidines
B31: SEQ74 mosaic aptamer (mixed)
DNA: GGGAGAGGCAAGAATAGGGCATAGTGTAGACCCCTCTCAAGATACCCCATGAATTGCCCCGTGAAGAGAAGAGACATTAGGA
modifications: purines ribo, pyrimidines (C,T) deoxy
B32: SEQ81 aptamer (ssRNA)
RNA: GGGAGAACUUCGACCAGAAGGAGAUGACUGUGUAACCACAGUAUGAAAUAAACUCUAUGUGCGCAUACAUGGAUCCUC
modifications: 2'-F all pyrimidines
B33: SEQ82 aptamer (ssRNA)
RNA: GGGAGAACUUCGACCAGAAGAGGAUGCUUGUUUGGUUACAAGCUGAAAGAAACCUUAUGUGCGCAUACAUGGAUCCUC
modifications: 2'-F all pyrimidines
B34: SEQ62 aptamer (ssRNA)
RNA: B5 RNA with G29A, G38U, C39U, G40A, A43G, C44U, A45G, A48C, C49A
modifications: 2'-F pyrimidines
B35: SEQ40 aptamer (ssRNA)
RNA: B23 RNA
modifications: 2'-F pyrimidines
B36: SEQ67 aptamer (ssRNA)
RNA: B29 RNA
modifications: 2'-F pyrimidines

These binders were tested against T1, beta-NGF (nerve growth factor) (Homo sapiens, UniProt P01138 P01138:122-241) (assay: SPR; blocks NGF-TrkA and NGF-P75). Settings: tags: R&D Systems; chain copies: 2.
T1 sequence (P01138 122-241, one chain of several): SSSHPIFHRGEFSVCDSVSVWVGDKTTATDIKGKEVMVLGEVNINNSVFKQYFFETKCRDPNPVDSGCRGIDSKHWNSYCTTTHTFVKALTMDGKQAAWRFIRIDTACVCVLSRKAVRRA
Description: As directed in BIAcore Company's protocol, Protein A (21181, PIERCE) was immobilized on a CM5 sensor chip. About 1100 RU of human Trk A-Fc fused with the Fc portion of IgG (175-TK, R&D systems) was immobilized thereon. As the analyte, a mixture of NGF (0.1 μM) and each aptamer (0.33 μM) was injected after being allowed to stand for 30 minutes. […] When NGF binds stronger to a receptor than an aptamer, the aptamer may be removed and NGF may bind to the receptor. […] Using the binding amount of NGF and NGF receptor without an aptamer as 100, the binding amount of NGF and NGF receptor added with an aptamer was determined as a correction value. Here, the binding amount is the RU value at the peak top of the sensorgram of BIAcore (RU value immediately after completion of NGF injection). […] A similar experiment was performed for another receptor P75 (p75-Fc; R&D systems).
With B1 the activity was ≥ 60 % inhibition.
With B2 the activity was ≥ 60 % inhibition.
For B3, the activity was ≥ 60 % inhibition.
With B4 the activity was ≥ 60 % inhibition.
In the case of B5, the activity is reported as ≥ 60 % inhibition.
For B6, the activity was ≥ 60 % inhibition.
B7 was tested, and the activity was ≥ 60 % inhibition.
B8 was tested, and the activity was ≥ 60 % inhibition.
B9 was tested, and the activity was ≥ 60 % inhibition.
With B10 the activity was ≥ 60 % inhibition.
In the case of B11, the activity is reported as ≥ 60 % inhibition.
In the case of B12, the activity is reported as ≥ 60 % inhibition.
With B13 the activity was ≥ 60 % inhibition.
With B14 the activity was ≥ 60 % inhibition.
B15 was tested, and the activity was ≥ 60 % inhibition.
In the case of B16, the activity is reported as ≥ 60 % inhibition.
In the case of B17, the activity is reported as ≥ 60 % inhibition.
B18 was tested, and the activity was ≥ 60 % inhibition.
In the case of B19, the activity is reported as ≥ 60 % inhibition.
For B20, the activity was ≥ 60 % inhibition.
For B21, the activity was ≥ 60 % inhibition.
B22 was tested, and the activity was ≥ 60 % inhibition.
With B23 the activity was ≥ 60 % inhibition.
For B24, the activity was ≥ 60 % inhibition.
For B25, the activity was ≥ 60 % inhibition.
B26 was tested, and the activity was ≥ 60 % inhibition.
In the case of B27, the activity is reported as ≥ 60 % inhibition.
For B28, the activity was ≥ 60 % inhibition.
GGGAAGCCUGUGGAGCUGCAGGAUGAAAAAAACCCAAA (ssRNA, 2'-F all pyrimidines) [SEQ35 aptamer] was tested, and the activity was ≥ 60 % inhibition.
B29 was tested, and the activity was ≥ 60 % inhibition.
B30 was tested, and the activity was ≥ 60 % inhibition.
In the case of B31, the activity is reported as ≥ 60 % inhibition.
In the case of B32, the activity is reported as ≥ 60 % inhibition.
With B33 the activity was ≥ 60 % inhibition.

The binders below were run against T1, beta-NGF (nerve growth factor) (assay: cell_activity; Neuroscreen-1 neurite outgrowth). Settings: tags: R&D Systems human NGF; chain copies: 2.
Description: The neurite outgrowth inhibitory activity of aptamer was evaluated by using Neuroscreen-1 cell, which is a subclone of PC-12 cells. 2500 Cells per well were cultured for one day in an RPMI-1640 medium containing 2.5% horse serum and 1.25% fetal bovine serum in a 96 well flat-bottom plate coated with collagen type IV. A mixed solution of NGF (final concentration 15 ng/ml or 1.1 nM) prereacted in a serum-free RPMI-1640 medium at room temperature or 37° C. for 30 min to 1 hr and an aptamer (final concentration 500-3 nM) was added. Two or three days later, the cytoplasm and nuclei were stained using Cellomics Neurite Outgrowth Kits (manufactured by Thermo Scientific), and neurite length per cell was measured by Cellomics ArrayScan VTI (manufactured by Thermo Scientific). With the neurite length per cell obtained by culturing the cell for 2 days with the addition of NGF alone as inhibitory activity 0%, and that of the cell obtained by NGF free culture as inhibitory activity 100%, the inhibitory activity of the aptamer was calculated from the neurite length per cell obtained by culturing with the addition of NGF and the aptamer in mixture. […] When the inhibitory activity was 0% or below, ‘0%’ is indicated. When it was not less than 100%, ‘100%’ is indicated. The 50% inhibitory concentration was determined from the concentrations at two, above and below points sandwiching the 50% inhibitory activity.
B34 was tested, and the IC50 was 2 nM.
B35 showed an IC50 of 2.4 nM.
B36 gave an IC50 of 2.7 nM.
